Experiment [1] has as its target BAFF (Homo sapiens (Human)) (UniProt Q9Y275). Nature of the experiment: BIAcore 3000, solution-phase equilibrium binding; free BAFF read on a BCMA-Fc chip; apparent KD.
The target is the same in experiment [2]. Kind of experiment: BIAcore 3000, solution-phase equilibrium binding, fit to a quadratic equation.

Bounds are passed on as bounds.

With “vBAFF-R(R3-A49):Fc (from UniProt Q96RJ3 2-48) (Fc fusion)”, in experiment [1], the Kd is less than 200 µM. The same substance registered a stoichiometry (BAFF:BAFF-R:Fc) (BAFF:BAFF-R:Fc) in experiment [2] of 1.
On the same counts, the results for “vBAFF-R(R3-A72):Fc (from UniProt Q96RJ3 2-71) (Fc fusion)” are less than 200 µM and 1.

Values taken from patent US20060234917A1.
